# Assay results taken from the Human Domainome abundance scans (Beltran et al. 2025).
# ± gives the uncertainty stated by the source.
# B1: Lysine-specific demethylase 2B, residues 656 to 722; numbered along this chain, Q8NHM5 (parent)
# chain: LPHTAVCLVCGEAGKEDTVEEEEGKFNLMLMECSICNEIIHPGCLKIKESEGVVNDELPNCWECPKC
# Variants of: B1
# Test: abundance fitness (aPCA) (normalised: wild type 0, dead -1); higher = more abundant; growth selection in yeast, the domain comes from the species named
# Settings: Homo sapiens
row,Variant,abundance fitness
1,LPHTAVCLVCGEAGKEDTVEEENGKFNLMLMECSICNEIIHPGCLKIKESEGVVNDELPNCWECPKC,-0.05 ± 0.18
2,LPHTAVCLVCGEAGKEDTVEEEYGKFNLMLMECSICNEIIHPGCLKIKESEGVVNDELPNCWECPKC,-0.36 ± 0.33
3,LPHTAVCLVCGEAGKEDTVEEESGKFNLMLMECSICNEIIHPGCLKIKESEGVVNDELPNCWECPKC,0.185 ± 0.11
4,LPHTAVCLVCGEAGKEDTVEEEMGKFNLMLMECSICNEIIHPGCLKIKESEGVVNDELPNCWECPKC,-0.088 ± 0.095
5,LPHTAVCLVCGEAGKEDTVEEEFGKFNLMLMECSICNEIIHPGCLKIKESEGVVNDELPNCWECPKC,-0.058 ± 0.26
6,LPHTAVCLVCGEAGKEDTVEEECGKFNLMLMECSICNEIIHPGCLKIKESEGVVNDELPNCWECPKC,-0.193 ± 0.16
7,LPHTAVCLVCGEAGKEDTVEEEVGKFNLMLMECSICNEIIHPGCLKIKESEGVVNDELPNCWECPKC,0.035 ± 0.097
8,LPHTAVCLVCGEAGKEDTVEEEDGKFNLMLMECSICNEIIHPGCLKIKESEGVVNDELPNCWECPKC,-0.016 ± 0.17
9,LPHTAVCLVCGEAGKEDTVEEEGGKFNLMLMECSICNEIIHPGCLKIKESEGVVNDELPNCWECPKC,0.13 ± 0.063
10,LPHTAVCLVCGEAGKEDTVEEEWGKFNLMLMECSICNEIIHPGCLKIKESEGVVNDELPNCWECPKC,-0.554 ± 0.15
11,LPHTAVCLVCGEAGKEDTVEEEQGKFNLMLMECSICNEIIHPGCLKIKESEGVVNDELPNCWECPKC,-0.21 ± 0.33
12,LPHTAVCLVCGEAGKEDTVEEEAGKFNLMLMECSICNEIIHPGCLKIKESEGVVNDELPNCWECPKC,0.004 ± 0.076
13,LPHTAVCLVCGEAGKEDTVEEEKGKFNLMLMECSICNEIIHPGCLKIKESEGVVNDELPNCWECPKC,0.157 ± 0.14
14,LPHTAVCLVCGEAGKEDTVEEERGKFNLMLMECSICNEIIHPGCLKIKESEGVVNDELPNCWECPKC,-0.058 ± 0.076
15,LPHTAVCLVCGEAGKEDTVEEEPGKFNLMLMECSICNEIIHPGCLKIKESEGVVNDELPNCWECPKC,-0.342 ± 0.22
16,LPHTAVCLVCGEAGKEDTVEEETGKFNLMLMECSICNEIIHPGCLKIKESEGVVNDELPNCWECPKC,-0.028 ± 0.12
17,LPHTAVCLVCGEAGKEDTVEEELGKFNLMLMECSICNEIIHPGCLKIKESEGVVNDELPNCWECPKC,-0.354 ± 0.11
18,LPHTAVCLVCGEAGKEDTVEEYEGKFNLMLMECSICNEIIHPGCLKIKESEGVVNDELPNCWECPKC,-0.291 ± 0.42
19,LPHTAVCLVCGEAGKEDTVEEQEGKFNLMLMECSICNEIIHPGCLKIKESEGVVNDELPNCWECPKC,0.086 ± 0.12
20,LPHTAVCLVCGEAGKEDTVEEVEGKFNLMLMECSICNEIIHPGCLKIKESEGVVNDELPNCWECPKC,-0.049 ± 0.082
21,LPHTAVCLVCGEAGKEDTVEEGEGKFNLMLMECSICNEIIHPGCLKIKESEGVVNDELPNCWECPKC,-0.009 ± 0.057
22,LPHTAVCLVCGEAGKEDTVEEIEGKFNLMLMECSICNEIIHPGCLKIKESEGVVNDELPNCWECPKC,-0.131 ± 0.34
23,LPHTAVCLVCGEAGKEDTVEEHEGKFNLMLMECSICNEIIHPGCLKIKESEGVVNDELPNCWECPKC,-0.099 ± 0.12
24,LPHTAVCLVCGEAGKEDTVEEWEGKFNLMLMECSICNEIIHPGCLKIKESEGVVNDELPNCWECPKC,-0.308 ± 0.12
25,LPHTAVCLVCGEAGKEDTVEEPEGKFNLMLMECSICNEIIHPGCLKIKESEGVVNDELPNCWECPKC,-0.449 ± 0.23
26,LPHTAVCLVCGEAGKEDTVEENEGKFNLMLMECSICNEIIHPGCLKIKESEGVVNDELPNCWECPKC,-0.162 ± 0.29
27,LPHTAVCLVCGEAGKEDTVEECEGKFNLMLMECSICNEIIHPGCLKIKESEGVVNDELPNCWECPKC,-0.235 ± 0.23

row,Variant,abundance fitness
1,LPHTAVCLVCGEAGKEDTVEEKEGKFNLMLMECSICNEIIHPGCLKIKESEGVVNDELPNCWECPKC,0.261 ± 0.12
2,LPHTAVCLVCGEAGKEDTVEESEGKFNLMLMECSICNEIIHPGCLKIKESEGVVNDELPNCWECPKC,-0.01 ± 0.088
3,LPHTAVCLVCGEAGKEDTVEEDEGKFNLMLMECSICNEIIHPGCLKIKESEGVVNDELPNCWECPKC,-0.153 ± 0.19
4,LPHTAVCLVCGEAGKEDTVEETEGKFNLMLMECSICNEIIHPGCLKIKESEGVVNDELPNCWECPKC,0.171 ± 0.11
5,LPHTAVCLVCGEAGKEDTVEEAEGKFNLMLMECSICNEIIHPGCLKIKESEGVVNDELPNCWECPKC,0.032 ± 0.087
6,LPHTAVCLVCGEAGKEDTVEEMEGKFNLMLMECSICNEIIHPGCLKIKESEGVVNDELPNCWECPKC,0.113 ± 0.1
7,LPHTAVCLVCGEAGKEDTVEELEGKFNLMLMECSICNEIIHPGCLKIKESEGVVNDELPNCWECPKC,-0.011 ± 0.066
8,LPHTAVCLVCGEAGKEDTVEEEEAKFNLMLMECSICNEIIHPGCLKIKESEGVVNDELPNCWECPKC,0.011 ± 0.078
9,LPHTAVCLVCGEAGKEDTVEEEEKKFNLMLMECSICNEIIHPGCLKIKESEGVVNDELPNCWECPKC,-0.051 ± 0.11
10,LPHTAVCLVCGEAGKEDTVEEEEIKFNLMLMECSICNEIIHPGCLKIKESEGVVNDELPNCWECPKC,-0.049 ± 0.13
11,LPHTAVCLVCGEAGKEDTVEEEEFKFNLMLMECSICNEIIHPGCLKIKESEGVVNDELPNCWECPKC,0.006 ± 0.055
12,LPHTAVCLVCGEAGKEDTVEEEELKFNLMLMECSICNEIIHPGCLKIKESEGVVNDELPNCWECPKC,0.045 ± 0.071
13,LPHTAVCLVCGEAGKEDTVEEEEEKFNLMLMECSICNEIIHPGCLKIKESEGVVNDELPNCWECPKC,0.013 ± 0.07
14,LPHTAVCLVCGEAGKEDTVEEEEHKFNLMLMECSICNEIIHPGCLKIKESEGVVNDELPNCWECPKC,0.346 ± 0.14
15,LPHTAVCLVCGEAGKEDTVEEEECKFNLMLMECSICNEIIHPGCLKIKESEGVVNDELPNCWECPKC,-0.415 ± 0.11
16,LPHTAVCLVCGEAGKEDTMEEEEGKFNLMLMECSICNEIIHPGCLKIKESEGVVNDELPNCWECPKC,-0.067 ± 0.22
17,LPHTAVCLVCGEAGKEDTTEEEEGKFNLMLMECSICNEIIHPGCLKIKESEGVVNDELPNCWECPKC,0.013 ± 0.1
18,LPHTAVCLVCGEAGKEDTWEEEEGKFNLMLMECSICNEIIHPGCLKIKESEGVVNDELPNCWECPKC,-0.429 ± 0.17
19,LPHTAVCLVCGEAGKEDTSEEEEGKFNLMLMECSICNEIIHPGCLKIKESEGVVNDELPNCWECPKC,-0.151 ± 0.13
20,LPHTAVCLVCGEAGKEDTYEEEEGKFNLMLMECSICNEIIHPGCLKIKESEGVVNDELPNCWECPKC,-0.295 ± 0.18
21,LPHTAVCLVCGEAGKEDTREEEEGKFNLMLMECSICNEIIHPGCLKIKESEGVVNDELPNCWECPKC,0.056 ± 0.086
22,LPHTAVCLVCGEAGKEDTVFEEEGKFNLMLMECSICNEIIHPGCLKIKESEGVVNDELPNCWECPKC,-0.343 ± 0.12
23,LPHTAVCLVCGEAGKEDTVDEEEGKFNLMLMECSICNEIIHPGCLKIKESEGVVNDELPNCWECPKC,-0.276 ± 0.23
24,LPHTAVCLVCGEAGKEDTVQEEEGKFNLMLMECSICNEIIHPGCLKIKESEGVVNDELPNCWECPKC,-0.126 ± 0.12
25,LPHTAVCLVCGEAGKEDTVWEEEGKFNLMLMECSICNEIIHPGCLKIKESEGVVNDELPNCWECPKC,-0.4 ± 0.11
26,LPHTAVCLVCGEAGKEDTVSEEEGKFNLMLMECSICNEIIHPGCLKIKESEGVVNDELPNCWECPKC,-0.191 ± 0.093
27,LPHTAVCLVCGEAGKEDTVTEEEGKFNLMLMECSICNEIIHPGCLKIKESEGVVNDELPNCWECPKC,-0.169 ± 0.11

row,Variant,abundance fitness
1,LPHTAVCLVCGEAGKEDTVGEEEGKFNLMLMECSICNEIIHPGCLKIKESEGVVNDELPNCWECPKC,0.035 ± 0.098
2,LPHTAVCLVCGEAGKEDTVLEEEGKFNLMLMECSICNEIIHPGCLKIKESEGVVNDELPNCWECPKC,-0.146 ± 0.074
3,LPHTAVCLVCGEAGKEDTVPEEEGKFNLMLMECSICNEIIHPGCLKIKESEGVVNDELPNCWECPKC,-0.081 ± 0.16
4,LPHTAVCLVCGEAGKEDTVAEEEGKFNLMLMECSICNEIIHPGCLKIKESEGVVNDELPNCWECPKC,-0.046 ± 0.095
5,LPHTAVCLVCGEAGKEDTVVEEEGKFNLMLMECSICNEIIHPGCLKIKESEGVVNDELPNCWECPKC,-0.03 ± 0.08
6,LPHTAVCLVCGEAGKEDTVHEEEGKFNLMLMECSICNEIIHPGCLKIKESEGVVNDELPNCWECPKC,-0.176 ± 0.21
7,LPHTAVCLVCGEAGKEDTVREEEGKFNLMLMECSICNEIIHPGCLKIKESEGVVNDELPNCWECPKC,0.033 ± 0.07
8,LPHTAVCLVCGEAGKEDTVCEEEGKFNLMLMECSICNEIIHPGCLKIKESEGVVNDELPNCWECPKC,-0.105 ± 0.063
9,LPHTAVCLVCGEAGKEDTVESEEGKFNLMLMECSICNEIIHPGCLKIKESEGVVNDELPNCWECPKC,0.305 ± 0.068
10,LPHTAVCLVCGEAGKEDTVEFEEGKFNLMLMECSICNEIIHPGCLKIKESEGVVNDELPNCWECPKC,-0.559 ± 0.48
11,LPHTAVCLVCGEAGKEDTVECEEGKFNLMLMECSICNEIIHPGCLKIKESEGVVNDELPNCWECPKC,-0.068 ± 0.17
12,LPHTAVCLVCGEAGKEDTVEKEEGKFNLMLMECSICNEIIHPGCLKIKESEGVVNDELPNCWECPKC,0.022 ± 0.13
13,LPHTAVCLVCGEAGKEDTVEIEEGKFNLMLMECSICNEIIHPGCLKIKESEGVVNDELPNCWECPKC,-0.566 ± 0.3
14,LPHTAVCLVCGEAGKEDTVETEEGKFNLMLMECSICNEIIHPGCLKIKESEGVVNDELPNCWECPKC,0.238 ± 0.11
15,LPHTAVCLVCGEAGKEDTVELEEGKFNLMLMECSICNEIIHPGCLKIKESEGVVNDELPNCWECPKC,-0.284 ± 0.082
16,LPHTAVCLVCGEAGKEDTVEHEEGKFNLMLMECSICNEIIHPGCLKIKESEGVVNDELPNCWECPKC,0.264 ± 0.26
17,LPHTAVCLVCGEAGKEDTVEPEEGKFNLMLMECSICNEIIHPGCLKIKESEGVVNDELPNCWECPKC,0.033 ± 0.15
18,LPHTAVCLVCGEAGKEDTVEVEEGKFNLMLMECSICNEIIHPGCLKIKESEGVVNDELPNCWECPKC,0.06 ± 0.11
19,LPHTAVCLVCGEAGKEDTVEWEEGKFNLMLMECSICNEIIHPGCLKIKESEGVVNDELPNCWECPKC,-0.354 ± 0.11
20,LPHTAVCLVCGEAGKEDTVEAEEGKFNLMLMECSICNEIIHPGCLKIKESEGVVNDELPNCWECPKC,0.107 ± 0.1
21,LPHTAVCLVCGEAGKEDTVEREEGKFNLMLMECSICNEIIHPGCLKIKESEGVVNDELPNCWECPKC,0.034 ± 0.099
22,LPHTAVCLVCGEAGKEDTVEYEEGKFNLMLMECSICNEIIHPGCLKIKESEGVVNDELPNCWECPKC,-0.035 ± 0.31
23,LPHTAVCLVCGEAGKEDTVEQEEGKFNLMLMECSICNEIIHPGCLKIKESEGVVNDELPNCWECPKC,-0.324 ± 0.19
24,LPHTAVCLVCGEAGKEDTVEGEEGKFNLMLMECSICNEIIHPGCLKIKESEGVVNDELPNCWECPKC,0.12 ± 0.1
25,LPHTAVCLVCGEAGKEDTVEMEEGKFNLMLMECSICNEIIHPGCLKIKESEGVVNDELPNCWECPKC,-0.062 ± 0.12
26,LPHTAVCLVCGEAGKEDTVEDEEGKFNLMLMECSICNEIIHPGCLKIKESEGVVNDELPNCWECPKC,-0.028 ± 0.22
